This is an account of results in patent US20240400689A1 (ANTENGENE BIOLOGICS, published 2024).

In test [1] the target is T1, human CD276 protein (human, UniProt Q5ZPR3 29-534).
T1 construct: whole, on cells; for SKOV3 and the other cancer lines the protein is the cells' own; also called B7-H3; B7H3
T1 sequence (looked up): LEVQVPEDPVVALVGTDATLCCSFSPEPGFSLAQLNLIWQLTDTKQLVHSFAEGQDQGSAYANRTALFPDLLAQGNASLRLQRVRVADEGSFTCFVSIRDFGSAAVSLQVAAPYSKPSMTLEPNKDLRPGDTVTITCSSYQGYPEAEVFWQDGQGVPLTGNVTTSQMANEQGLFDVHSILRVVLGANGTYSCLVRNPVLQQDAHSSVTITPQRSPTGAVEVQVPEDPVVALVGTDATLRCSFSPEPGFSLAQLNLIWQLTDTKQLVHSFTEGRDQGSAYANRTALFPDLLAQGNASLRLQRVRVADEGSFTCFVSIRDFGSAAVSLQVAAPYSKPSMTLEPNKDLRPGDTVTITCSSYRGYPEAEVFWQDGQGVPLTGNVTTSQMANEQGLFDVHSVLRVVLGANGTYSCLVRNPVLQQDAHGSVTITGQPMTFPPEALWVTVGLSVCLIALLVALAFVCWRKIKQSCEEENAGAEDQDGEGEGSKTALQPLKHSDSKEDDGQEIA
Briefly: FACS titration on SKOV3 cells (MFI against Conc. (nM)); unit taken from the concentration axis.

Test [2] concerns the target T1, human CD276 protein. Described as above. The text has this: Sequences of 31 mouse antibodies from Table 5 were selected to generate and produce human IgG1 chimeric antibodies. The binding affinity of these antibodies and bench mark antibody, Enoblituzumab (see U.S. Pat. No. 8,802,091, MGA271, specifically with a construct designated as hBRCA84D-2) and MGC018 (an antibody-drug-conjugate, in which the mAb MGA017 (human IgG1) is conjugated via a cleavable linker to the prodrug seco-DUocarmycin hydroxyBenzamide Azaindole (DUBA), an alkylating agent that can damage DNA in both dividing and non-dividing cells, thereby causing cell death) with human patient derived ovarian cancer cell line, SKOV3, was determined by FACS analysis.
1. Digested cells using Trypsin (1×); Centrifuged the harvested cells at 300 g for 3 min and discarding the supernatant. […] 2. Washed the cells 2 times with FACS buffer by centrifuging at 300 g for 3 min and discarding the supernatant. [0445] 3. […] Kept the cells in dark for FACS analysis.
The source holds these as a separate data set.

In test [3] the target is T1, human CD276 protein. Briefly: FACS on SKOV3 cells. Summed up:
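Human IgG1 chimeric antibodies were tested for binding to trypsin-detached SKOV3 ovarian cancer cells by flow cytometry, with cells washed in FACS buffer and kept in the dark before acquisition. Titration read-out was MFI plotted against antibody concentration (nM).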

Test [4] has as its target T1, human CD276 protein. Briefly: cell-based or functional assay.
In test [5] the target is T1, human CD276 protein. The test is described as follows: cell-based or functional assay. This is another data set of the same source.

B1: hVH1-hVL5-30 (antibody, V domains shown)
VH: QVQLQESGPGLVKPSQTLSLTCTVSGYSITSDYAWNWIRQHPGKGLEWIGYISHSGSTSYNPSLKSRVTISRDTSKNQFSLKLSSVTAADTAVYYCARSLGRRWYFDVWGQGTTVTVSS
VL: DIVMTQSPLSLPVTPGEPASISCKSSQSLLNSSTQKNYLAWYLQKPGQSPQLLIYFASTRDSGVPDRFSGSGSGTDFTLKISRVEAEDLGVYFCQQHYIIPFTFGQGTKLEIK
Turning to B1, the midpoint of the response with human CD276 protein [1], the EC50, lay at 11.3 nM.

B2: hVH2-hVL1-30 (antibody, V domains shown)
VH: QVQLQESGPGLVKPSETLSLTCTVSGYSITSDYAWNWIRQPPGKGLEWIGYISHSGSTSYNPSLKSRVTISRDTSKNQFSLKLSSVTAADTAVYYCARSLGRRWYFDVWGQGTTVTVSS
VL: DIQMTQSPSSLSASVGDRVTITCKSSQSLLNSSTQKNYLAWYQQKPGKAPKLLIYFASTRDSGVPSRFSGSGSGTDFTLTISSLQPEDLATYFCQQHYIIPFTFGQGTKLEIK
B2 returned a half-maximal effective concentration (EC50) with human CD276 protein [1] of 9.51 nM.

B3: hVH3-hVL2-30 (antibody, V domains shown)
VH: QVQLQESGPGLVKPSETLSLTCTVSGYSITSDYAWNWIRQPPGKGLEWIGYISHSGSTSYNPSLKSRVTISRDTSKNQFSLKLSSVTAADTAVYYCARSLGRRWYFDVWGQGTTVTVSS
VL: DIVMTQSPDSLAVSLGERATINCKSSQSLLNSSTQKNYLAWYQQKPGQPPKLLIYFASTRDSGVPDRFSGSGSGTDFTLTISSLQAEDLAVYFCQQHYIIPFTFGQGTKLEIK
B3 gave a concentration giving a half-maximal response (EC50) with human CD276 protein [1] of 5.93 nM.

B4: hVH3-hVL5-30 (antibody, V domains shown)
VH: QVQLQESGPGLVKPSETLSLTCTVSGYSITSDYAWNWIRQPPGKGLEWIGYISHSGSTSYNPSLKSRVTISRDTSKNQFSLKLSSVTAADTAVYYCARSLGRRWYFDVWGQGTTVTVSS
VL: DIVMTQSPLSLPVTPGEPASISCKSSQSLLNSSTQKNYLAWYLQKPGQSPQLLIYFASTRDSGVPDRFSGSGSGTDFTLKISRVEAEDLGVYFCQQHYIIPFTFGQGTKLEIK
In the test with human CD276 protein [1], B4 yielded an EC50 of 6.37 nM.

B5: hVH4-hVL5-30 (antibody, V domains shown)
VH: QVQLQESGPGLVKPSQTLSLTCAVYGYSITSDYAWNWIRQPPGKGLEWIGYISHSGSTSYNPSLKSRVTISRDTSKNQFSLKLSSVTAADTAVYYCARSLGRRWYFDVWGQGTTVTVSS
VL: DIVMTQSPLSLPVTPGEPASISCKSSQSLLNSSTQKNYLAWYLQKPGQSPQLLIYFASTRDSGVPDRFSGSGSGTDFTLKISRVEAEDLGVYFCQQHYIIPFTFGQGTKLEIK
Regarding B5, the EC50 in the test with human CD276 protein [1] was 8.52 nM.

B6: hVH4-hVL2-30 (antibody, V domains shown)
VH: QVQLQESGPGLVKPSQTLSLTCAVYGYSITSDYAWNWIRQPPGKGLEWIGYISHSGSTSYNPSLKSRVTISRDTSKNQFSLKLSSVTAADTAVYYCARSLGRRWYFDVWGQGTTVTVSS
VL: DIVMTQSPDSLAVSLGERATINCKSSQSLLNSSTQKNYLAWYQQKPGQPPKLLIYFASTRDSGVPDRFSGSGSGTDFTLTISSLQAEDLAVYFCQQHYIIPFTFGQGTKLEIK
In the test with human CD276 protein [1], B6 showed an EC50 of 9.77 nM.

B7: hVH2-hVL1-10 (antibody, V domains shown)
VH: EVQLVESGGGLVQPGGSLRLSCATSGFTLSDYYMSWVRQAPGKGLEWVSFMRNKANGYTTEYSASVRGRFTISRDTSKSTIYLQMNSLRAEDTAVYYCVRDRDGRPFAYWGQGTLVTVSS
VL: DIVMTQSPDSLAVSLGERATINCKSSQSLLNSINQKNFLTWYQQKPGQPPKLLIYWASTRESGVPDRFSGSGSGTDFTLTISSLQAEDLAVYYCQNDYTYPLTFGQGTKLEIK
B7 registered a concentration for a half-maximal effect (EC50) with human CD276 protein [2] of 1.92 nM.

B8: hVH4-hVL2-10 (antibody, V domains shown)
VH: EVQLVESGGGLIQPGGSLRLSCATSGFTLSDYYMSWVRQPPGKGLEWVSFMRNKANGYTTEYSASVRGRFTISRDTSKSTIYLQMNSLRAEDTAVYYCVRDRDGRPFAYWGQGTLVTVSS
VL: DIVMTQSPLSLPVTPGEPASISCKSSQSLLNSINQKNFLTWYLQKPGQSPQLLIYWASTRESGVPDRFSGSGSGTDFTLKISRVEAEDLGVYYCQNDYTYPLTFGQGTKLEIK
Turning to B8, in the test with human CD276 protein [2], the EC50 is 4.43 nM.

B9: hVH3-hVL3-10 (antibody, V domains shown)
VH: EVQLVESGGGLVQPGGSLRLSCATSGFTLSDYYMSWVRQAPGKGLEWVGFMRNKANGYTTEYSASVRGRFTISRDTSKSSIYLQMNSLKTEDTAVYYCVRDRDGRPFAYWGQGTLVTVSS
VL: DIQMTQSPSSLSASVGDRVTITCKSSQSLLNSINQKNFLTWYQQKPGKAPKLLIYWASTRESGVPSRFSGSGSGTDFTLTISSLQPEDLATYYCQNDYTYPLTFGQGTKLEIK
Take B9: the half-maximal effective concentration (EC50) in the test with human CD276 protein [2] turned out to be 2.75 nM.

B10: hVH5-hVL3-10 (antibody, V domains shown)
VH: EVQLVESGGGLVQPGRSLRLSCTTSGFTLSDYYMSWVRQAPGKGLEWVGFMRNKANGYTTEYSASVRGRFTISRDTSKSIIYLQMNSLKTEDTAVYYCVRDRDGRPFAYWGQGTLVTVSS
VL: DIQMTQSPSSLSASVGDRVTITCKSSQSLLNSINQKNFLTWYQQKPGKAPKLLIYWASTRESGVPSRFSGSGSGTDFTLTISSLQPEDLATYYCQNDYTYPLTFGQGTKLEIK
For B10, in the test with human CD276 protein [2], the midpoint of the response, the EC50, lay at 2.98 nM.

B11: hVH5-hVL1-10 (antibody, V domains shown)
VH: EVQLVESGGGLVQPGRSLRLSCTTSGFTLSDYYMSWVRQAPGKGLEWVGFMRNKANGYTTEYSASVRGRFTISRDTSKSIIYLQMNSLKTEDTAVYYCVRDRDGRPFAYWGQGTLVTVSS
VL: DIVMTQSPDSLAVSLGERATINCKSSQSLLNSINQKNFLTWYQQKPGQPPKLLIYWASTRESGVPDRFSGSGSGTDFTLTISSLQAEDLAVYYCQNDYTYPLTFGQGTKLEIK
As for B11, a half-maximal response with human CD276 protein [2] (EC50) required 2.63 nM.

B12: hVH4-hVL1-10 (antibody, V domains shown)
VH: EVQLVESGGGLIQPGGSLRLSCATSGFTLSDYYMSWVRQPPGKGLEWVSFMRNKANGYTTEYSASVRGRFTISRDTSKSTIYLQMNSLRAEDTAVYYCVRDRDGRPFAYWGQGTLVTVSS
VL: DIVMTQSPDSLAVSLGERATINCKSSQSLLNSINQKNFLTWYQQKPGQPPKLLIYWASTRESGVPDRFSGSGSGTDFTLTISSLQAEDLAVYYCQNDYTYPLTFGQGTKLEIK
Take B12: the EC50 with human CD276 protein [2] was 1.9 nM.

B13: 30-C7-C11-D4 (human IgG1 chimeric antibody) (antibody, V domains shown)
VH: EVQLVESGPGLVKPSQSLSLTCTVTGYSITSDYAWNWIRQFPGNKLEWMGYISHSGSTSYNPSLKSRISITRDTSKNQFFLQLNSVTTEDTATYYCARSLGRRWYFDVWGAGTTVTVSS
VL: DIVMTQSPSSLAMSVGQKVTLSCKSSQSLLNSSTQKNYLAWYQQKPGQSPKLLVYFASTRDSGVPDRFIGSGSGTEFTLTISSVQAEDLADYFCQQHYIIPFTFGAGTKLEIK
notes: human IgG1 chimeric antibody of the mouse clone
In the case of B13, in the test with human CD276 protein [3], the EC50 is 0.282 µg/mL and the “MFI (Max)” value stood at 4270. In the test with human CD276 protein [1], this molecule displayed an EC50 of 7.98 nM. For the same molecule, in the test with human CD276 protein [4], the “EC50 of antibody induced CDC effect” value was 3.21 nM and the “Top cytotoxicity (%), CDC” value worked out at 60.3%. The “EC50 of antibody induced ADCC effect on SKOV3” value in the test with human CD276 protein [5] came out at 0.0327 µg/mL.

B14: mVH5-mVL4-10 (antibody, V domains shown)
VH: EVQLVESGGGLVQPGGSLRLSCATSGFTLSDYYMSWVRQPPGKAPEWLGFMRNKANAYTTEYSASVRGRFTISRDTSQSIIYLQMNTLRAEDGATYYCVRDREGRPFAYWGQGTLVTVSA
VL: DIVMTQSPSSLTVTAGEKVTMSCKSSQSLLNAINQKNFLTWYQQKPGQPPKLLIYWASTRESGVPDRFTGSGSGTDFTLTISSVQAEDLAIYYCQNDYTYPLTFGTGTKLELK
The molecule B14 gave a concentration giving a half-maximal response (EC50) in the test with human CD276 protein [2] of 2.76 nM.
